Assay results reported in US9902783B2, “Antibodies and pharmaceutical compositions containing same useful for inhibiting activity of metalloproteins” (Yeda Research and Development Co. Ltd., priority 2007, dated 2018).

T1: MMP-7 (matrilysin) (Homo sapiens, UniProt P09237)
T1 sequence (P09237 95-267): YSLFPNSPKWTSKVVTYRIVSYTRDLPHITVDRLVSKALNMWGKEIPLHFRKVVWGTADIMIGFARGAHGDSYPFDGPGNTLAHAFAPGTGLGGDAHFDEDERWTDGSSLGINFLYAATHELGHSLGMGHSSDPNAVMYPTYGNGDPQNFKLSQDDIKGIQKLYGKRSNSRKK

T2: Pro-MMP-2 (Homo sapiens, UniProt P08253)
T2 sequence (P08253 30-660 limits assumed): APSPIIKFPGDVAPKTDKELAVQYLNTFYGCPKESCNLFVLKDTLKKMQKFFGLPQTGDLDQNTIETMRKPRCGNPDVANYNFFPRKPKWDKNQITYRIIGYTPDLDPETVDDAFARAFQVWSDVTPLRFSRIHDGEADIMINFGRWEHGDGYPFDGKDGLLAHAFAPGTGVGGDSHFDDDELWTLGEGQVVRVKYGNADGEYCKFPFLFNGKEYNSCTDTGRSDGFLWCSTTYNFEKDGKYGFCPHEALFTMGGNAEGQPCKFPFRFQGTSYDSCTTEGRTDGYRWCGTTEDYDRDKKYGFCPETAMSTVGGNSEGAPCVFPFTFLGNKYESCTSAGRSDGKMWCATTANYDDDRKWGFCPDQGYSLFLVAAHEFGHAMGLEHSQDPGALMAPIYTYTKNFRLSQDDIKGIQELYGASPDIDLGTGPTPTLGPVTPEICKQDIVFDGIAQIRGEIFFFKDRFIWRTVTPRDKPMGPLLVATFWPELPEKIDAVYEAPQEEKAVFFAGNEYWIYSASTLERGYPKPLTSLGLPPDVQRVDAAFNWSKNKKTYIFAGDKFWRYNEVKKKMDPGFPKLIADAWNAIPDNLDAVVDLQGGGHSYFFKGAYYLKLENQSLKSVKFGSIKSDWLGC

B1: 13E11: monoclonal antibody, IgG2b, raised against the hapten CoTCPP (antibody, V domains shown)
VH: EGGGLVQPGGSRKLSCAASGFTFTSFGMHWVRQAPEKGLEWVAYISSGNEIIYYADTVKGRFTISRDNPKNTLFLQMTSLRSEDTAMYYCARNYYRYGFYVMDYWGQG
VL: EIVVTQSPAILSASPGEKVTMTCRASSSVSYMHWYQQKPGSSPKPWIYATSNELASGVPARFSGSGSGTSYSLTISRVEAEDAATYYCQQWISNPLTFGAG
modifications: 13E11 mAb heavy chain; 13E11 mAb light chain
notes: monoclonal antibody, IgG2b, raised against the hapten CoTCPP
B2: 6C6: monoclonal antibody, IgG2a, raised against the hapten Imisdp; MMP-2 and MMP-9 inhibitory; SEQ ID NO: 1 (protein)
chain: CMETTQTPLSLPVSLGDQASISCRSSQSIVHSNGNTFLEWYLQKPGQSPKLLIYKVSNCRFSGVPDRFSGSGSGTDFTLKISRVEAEDLGVYYCFQASHVPPTFGGG
modifications: 6c6 mAb light chain

How the values were obtained:
[1] = system: MT1 catalytic domain; assay: immuno affinity binding assay, MT1-MMP; conditions: purified enzyme
Experimental: MAbs (10 μg) were incubated with anti mouse IgG Agarose beads (Sigma) overnight at 4° C. in PBS. After washing unbound antibody, purified Pro-MMP-2, Pro-MMP-9 MMP-2 catalytic domain, MT1 catalytic domain or TACE (2 μg), were added following 2 h incubation at RT. The beads were collected by centrifugation and washed three times with PBS. The proteins that remained bound to the beads were eluted with SDS sample buffer, fractionated by SDS-PAGE, and detected by staining with Coomassie blue.

[2] = cross reactivity, competitive ELISA and immuno affinity assay, vitamin; type: binding
Excerpt: The selectivity of anti CoTCPP and anti Imisdp was further challenged, by testing their cross reactivity with non related zinc dependent enzymes—Carbonic Anhydrase (CA) and brockii alcohol dehydrogenase (TbADH). Similar to active MMPs CA contains a zinc ion that is tetrahedraly coordinated to three histidine residues and a water molecule, TbADH contains a catalytic zinc ion that is tetraheadrally coordinated to four different amino acid residues, histidine, cysteine, aspartate and glutamate. […] Anti CoTCPP mAb was also tested for its cross reactivity with related physiological porphyrins such as the Heme group within Myoglobin and Hemoglobin and vitamin.
Carbonic anhydrase, and alcohol dehydrogenase all have rather buried active sites, similarly, the porphyrin moiety in Myoglobin and Hemoglobin is not exposed. Vitamin B 12 contains metal at the center of planer […] structure yet the axial ligands may interfere with the binding of the mAb.

[3] = target: T1, MMP-7 (matrilysin); assay: inhibition assay with fluorogenic peptide substrate, MMP-7; type: biochemical; conditions: mAb concentrations of up to 30 μM
Experimental: To explore the selectivity of 6C6, its reactivity was tested toward different matrix metalloproteinase subgroups including matrilysin (MMP7), membrane type MMP (MT1-MMP) and related disintegrin (ADAMs) tumor necrosis factor-α-converting enzyme (TACE). The core structures of these enzymes, are highly similar, varying mostly within the peripheral loops. Specifically the zinc-histidine scaffold is well conserved, showing a consensus helix followed by a loop that serves as a scaffold for the three histidine residues that coordinate the catalytic zinc ion (FIG. 13).
Similar inhibition assays were performed with appropriate flourogenic peptide substrates. […] Sequence variations, mostly within the peripheral loops dictate differences in the extent of exposure of the zinc-histidine motif, in the shape of the active site and its surface electrostatic may account for this selective inhibitory pattern.

[4] = target: T3, active MMP-9 (Mus musculus, UniProt P41245); assay: co-purification of active MMP-9 with mAb from mice ascites fluid (western blot); type: binding; conditions: co-purified from mice ascites fluid, about 82 KDa band in western blot
T3 construct: corresponding to active MMP9 lacking the pro-domain was identified; from tissue; host or cells: mouse ascites fluid
T3 sequence (P41245 108-730): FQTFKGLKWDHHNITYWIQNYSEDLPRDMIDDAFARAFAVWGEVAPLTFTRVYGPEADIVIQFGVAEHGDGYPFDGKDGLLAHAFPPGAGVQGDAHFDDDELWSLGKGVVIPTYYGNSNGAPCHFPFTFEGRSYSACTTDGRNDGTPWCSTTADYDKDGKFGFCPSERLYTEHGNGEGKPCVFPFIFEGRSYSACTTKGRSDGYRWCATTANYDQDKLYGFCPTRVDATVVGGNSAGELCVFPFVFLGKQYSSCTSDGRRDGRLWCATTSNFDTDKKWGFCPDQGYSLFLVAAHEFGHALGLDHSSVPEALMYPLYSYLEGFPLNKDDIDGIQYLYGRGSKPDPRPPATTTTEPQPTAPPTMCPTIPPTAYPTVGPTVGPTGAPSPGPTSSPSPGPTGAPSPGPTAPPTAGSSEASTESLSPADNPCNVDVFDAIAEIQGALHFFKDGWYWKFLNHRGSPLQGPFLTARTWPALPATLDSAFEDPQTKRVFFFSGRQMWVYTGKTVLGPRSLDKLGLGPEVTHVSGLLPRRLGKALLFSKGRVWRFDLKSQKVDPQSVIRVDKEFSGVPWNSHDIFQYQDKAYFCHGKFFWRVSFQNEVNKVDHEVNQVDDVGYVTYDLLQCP
Experimental: FIGS. 11A-11D are photographs and models illustrating that 6C6 binds only the active conformation of MMP9 and MMP2. FIG. 11A: Detection of active MMP9 that co-purified with 6C6 from mice ascites fluid. MAb (10 μg) purified from mice ascites fluid containing MMP9, was subjected to western blot (WB) analysis using commercial anti MMP9 antibody. Non related IgG mAb that has been purified in the same manner, served as negative control (MAb Control). Human ProMMP9 purified from Hilla transfected cells served as molecular weight marker to discern the active species. Purification was done by affinity chromatography using protein G beads which bind mAb via its constant domain, leaving the antigen binding site free to interact with the antigen. FIGS. 11B,C: 6C6 mAb immobilized to protein A beads was analyzed for its ability to pull down ProMMP2, ProMMP9, or MMP2 catalytic fragment (lacking the hemopexin and pro domains) from solution. […]
Selected hybridomas were subcloned twice by limited dilutions, followed by large-scale production by ascites tumors primed with pristine (2,6,10,14 tetrametylpentadecane) injected BALB/c mice. […] The elution peak was analyzed by SDS-PAGE.
Purified antibodies were separated in 8% SDS-polyacrylamide gel, transferred to NC membranes (Bio-Rad), and subsequently subjected to immunoblot analysis using anti MMP-9 antibody (Sigma). […] Signals were detected using ECL (Pierce).

[5] = target: T2, Pro-MMP-2; type: binding

Row | Molecule | binding to MT1-MMP [1] | cross reactivity with vitamin [2] | inhibition of MMP-7 [3] | in vivo complex with active MMP-9 [4] | binding to Pro-MMP-2 [5]
1 | B1 | no binding was detected | No cross was detected | – | – | –
2 | B2 | – | – | neither MMP-7 nor TACE were inhibited to any measurable extent | formed a specific in vivo complex | did not bind
